Measured values from patent US20210292396A1 (INTERNATIONAL AIDS VACCINE INITIATIVE, published 2021).

Key:
[1] = target: HIV Env of isolate X1193_c1 (HIV); assay: cell-based or functional assay
[2] = target: HIV Env of isolate Ce703010054_2A2 (HIV); assay: cell-based or functional assay
HIV Env of isolate CNE5 = HIV Env of isolate CNE5 (HIV); assay: cell-based or functional assay
[3] = target: gp120 (isolate not stated; FIG. 19) (HIV)
[4] = target: HIV Env of isolate Ce704809221_1B3 (HIV); assay: cell-based or functional assay
HIV Env of isolate CNE19 = HIV Env of isolate CNE19 (HIV); assay: cell-based or functional assay

Binder | neutralization IC50 [1] | neutralization IC50 [2] | neutralization (Table 6 value) (HIV Env of isolate CNE5) | EC50 (read off the curve) [3] | neutralization IC50 [4] | neutralization IC50 (HIV Env of isolate CNE19)
ePGT121.15.H1.L1 (antibody, V domains shown) VH: QMQLQESGPGLVKPGETLSLTCSVSGASISSSYWSWLRETPGKGLEWIGYTHHSGDTNYAPSLKSRVHLGLHPSKNQVSLSLTSVTAADTAVYYCARTLHGRRIYGVVAFNEWFTYFYWEVWGNGTQVTVSS VL: SDISVAPGETVRISCGGESIGSRAVQWYQHRAGQAPKLIIYNNQDRPPGIPERFSGSPDIDFGTTATLTITNVEAGDEATYYCHIWDSRRPTNWVFGGGTTLTVL | 0.0001 µg/mL | > 50 µg/mL | – | – | – | –
ePGT121.15.H6.L1 (antibody, V domains shown) VH: QMQLQESGPGLVKPGETLSLTCSVSGASISSSYWSWLRETPGKGLEWIGYTHHSGDTNYAPSLKSRVHLGLHPSKNQVSLSLTSVTAADTAVYYCARTLHGRRIYGVVAFNEFFTYFYWEVWGKGTQVTVSS VL: SDISVAPGETVRISCGGESIGSRAVQWYQHRAGQAPKLIIYNNQDRPPGIPERFSGSPDIDFGTTATLTITNVEAGDEATYYCHIWDSRRPTNWVFGGGTTLTVL | – | – | 2.72 | – | – | –
PGT-121 (antibody, V domains shown) VH: QMQLQESGPGLVKPSETLSLTCSVSGASISDSYWSWIRRSPGKGLEWIGYVHKSGDTNYSPSLKSRVNLSLDTSKNQVSLSLVAATAADSGKYYCARTLHGRRIYGIVAFNEWFTYFYMDVWGNGTQVTVSS VL: SDISVAPGETARISCGEKSLGSRAVQWYQHRAGQAPSLIIYNNQDRPSGIPERFSGSPDSPFGTTATLTITSVEAGDEADYYCHIWDSRVPTKWVFGGGTTLTVLG | – | > 50 µg/mL | – | ~0.6 µg/mL | 0.025 µg/mL | 0.008 µg/mL
